Data reported in US20240174727A1, “LONG-ACTING NATRIURETIC PEPTIDES AND USES THEREOF” (Eli Lilly and Company, priority 2022, published 2024).
Residue numbers refer to the chain shown, from its start. Numbered stars: 1 amine (or outer) side, 2 acyl side, 3 side chain; on linkers, the order of the positions; unused ones are H or OH. Bridge positions count the residues as written; N and C are the ends. Square brackets hold non-standard residues; d marks the D form. * marks the point of attachment. thioacetal = thioacetal linkage between two cysteines (intrachain bond at the bracketed Cys); C20 diacid = O=C(O)CCCCCCCCCCCCCCCCCCC(=O)*; C16 diacid = O=C(O)CCCCCCCCCCCCCCC(=O)*; γGlu = O=C(O)[C@H](CCC(=O)[*:2])N[*:1]; 4Pal = N[C@@H](Cc1ccncc1)C(=O)O; Aib = CC(C)(N)C(=O)O; βAla = NCCC(=O)O

T1: rat NPRA (rat, UniProt P18910 29-1057)
T1 sequence (looked up): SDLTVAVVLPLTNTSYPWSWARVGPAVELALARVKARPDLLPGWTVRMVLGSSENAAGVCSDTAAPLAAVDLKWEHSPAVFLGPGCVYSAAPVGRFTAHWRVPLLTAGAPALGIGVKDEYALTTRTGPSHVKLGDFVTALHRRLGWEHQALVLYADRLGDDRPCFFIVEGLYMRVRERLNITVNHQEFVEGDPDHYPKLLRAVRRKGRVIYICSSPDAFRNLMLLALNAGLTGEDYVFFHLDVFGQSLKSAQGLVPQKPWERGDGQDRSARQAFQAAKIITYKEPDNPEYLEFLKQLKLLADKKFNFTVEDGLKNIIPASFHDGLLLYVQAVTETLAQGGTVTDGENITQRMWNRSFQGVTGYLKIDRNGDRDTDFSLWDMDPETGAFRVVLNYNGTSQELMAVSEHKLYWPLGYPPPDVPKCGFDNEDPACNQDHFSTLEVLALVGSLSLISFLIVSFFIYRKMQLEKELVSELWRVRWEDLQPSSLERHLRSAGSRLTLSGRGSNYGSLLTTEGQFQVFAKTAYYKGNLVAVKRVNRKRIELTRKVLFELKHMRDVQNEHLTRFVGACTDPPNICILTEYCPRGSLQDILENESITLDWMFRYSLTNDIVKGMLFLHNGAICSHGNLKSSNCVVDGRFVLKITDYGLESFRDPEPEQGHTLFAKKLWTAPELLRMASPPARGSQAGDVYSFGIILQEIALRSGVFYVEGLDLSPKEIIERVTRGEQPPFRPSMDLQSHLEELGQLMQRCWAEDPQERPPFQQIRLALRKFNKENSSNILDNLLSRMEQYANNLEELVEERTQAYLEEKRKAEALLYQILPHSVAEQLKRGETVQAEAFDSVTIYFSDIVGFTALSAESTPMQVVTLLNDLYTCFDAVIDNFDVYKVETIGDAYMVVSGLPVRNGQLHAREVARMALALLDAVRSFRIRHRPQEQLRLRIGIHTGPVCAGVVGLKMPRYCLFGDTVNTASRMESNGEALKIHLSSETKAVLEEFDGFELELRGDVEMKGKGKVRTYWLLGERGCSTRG

T2: human NPRA (human, UniProt P16066 33-1061)
T2 sequence (looked up): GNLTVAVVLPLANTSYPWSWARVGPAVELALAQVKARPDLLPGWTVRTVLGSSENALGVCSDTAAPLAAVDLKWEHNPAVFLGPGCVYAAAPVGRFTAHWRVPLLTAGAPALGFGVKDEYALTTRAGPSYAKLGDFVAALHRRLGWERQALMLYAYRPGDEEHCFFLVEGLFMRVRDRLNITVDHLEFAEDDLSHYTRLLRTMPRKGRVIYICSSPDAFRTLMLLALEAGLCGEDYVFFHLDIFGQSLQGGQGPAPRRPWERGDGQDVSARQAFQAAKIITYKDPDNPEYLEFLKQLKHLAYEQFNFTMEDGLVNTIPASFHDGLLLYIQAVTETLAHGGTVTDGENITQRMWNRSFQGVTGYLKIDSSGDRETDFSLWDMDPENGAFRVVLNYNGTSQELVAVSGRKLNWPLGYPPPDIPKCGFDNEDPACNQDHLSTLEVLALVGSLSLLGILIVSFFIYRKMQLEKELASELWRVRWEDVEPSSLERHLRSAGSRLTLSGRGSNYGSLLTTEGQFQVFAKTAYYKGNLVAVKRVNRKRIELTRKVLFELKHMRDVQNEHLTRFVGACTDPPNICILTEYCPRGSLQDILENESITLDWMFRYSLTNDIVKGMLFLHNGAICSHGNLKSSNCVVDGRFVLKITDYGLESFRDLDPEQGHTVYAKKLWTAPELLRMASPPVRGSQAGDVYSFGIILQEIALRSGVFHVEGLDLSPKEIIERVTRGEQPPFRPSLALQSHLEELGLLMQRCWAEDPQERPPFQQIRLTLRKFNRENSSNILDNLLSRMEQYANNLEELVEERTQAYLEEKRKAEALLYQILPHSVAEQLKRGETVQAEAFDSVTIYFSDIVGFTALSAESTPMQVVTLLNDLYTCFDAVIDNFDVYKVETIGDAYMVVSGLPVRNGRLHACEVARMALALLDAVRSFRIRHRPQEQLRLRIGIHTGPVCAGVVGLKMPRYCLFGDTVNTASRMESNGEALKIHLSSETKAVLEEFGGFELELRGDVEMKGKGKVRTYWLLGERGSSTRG

B1: Example 61 (peptide)
peptide: SXRRSSCFGGRIDRIGHQSGLGCPSFRHGGPSSGAPPPS
modifications: HOOC-(CH2)18-CO-(γGlu)-EKEKEKG-PEG24-S-4Pal-RRSS[CFGGRIDRIGHQSGLGC]PSFRHGGPSSGAPPPS-NH2; thioacetal linkage between the bracketed Cys
B2: Example 75 (peptide)
peptide: B1 peptide with P31K
modifications: HOOC-(CH2)18-CO-(γGlu)-EKEKEKG-PEG24-S-4Pal-RRSS[CFGGRIDRIGHQSGLGC]PSFRHGGKSSGAPPPS-NH2; thioacetal linkage between the bracketed Cys
B3: Example 65 (peptide)
peptide: XEKEKEKGSKXRSSCFGGRIDRIGHYSGLGCPSFRHGGPSSGAPPPS
modifications: HOOC-(CH2)18-CO-(γGlu)-EKEKEKGSK-βAla-RSS[CFGGRIDRIGHYSGLGC]PSFRHGGPSSGAPPPS-NH2; thioacetal linkage between the bracketed Cys
B4: Example 69 (peptide)
peptide: B3 peptide with K10X, X11R, Y26Q
modifications: not fully specified; HOOC-(CH2)18-CO-(γGlu)-EKEKEKGS-4Pal-RRSS[CFGGRIDRIGHQSGLGC]PSFRHGGPSSGAPPPS-NH2; thioacetal linkage between the bracketed Cys
B5: Example 3 (peptide)
peptide: EKXRSSCFGKRIDRIGHQSGLGCPSFRHGGKSSGAPPPS
modifications: HOOC-(CH2)18-CO-(γGlu)-EKEKEKG-PEG24-EK-βAla-RSS[CFGKRIDRIGHQSGLGC]PSFRHGGKSSGAPPPS-NH2; thioacetal linkage between the bracketed Cys
B6: Example 4 (peptide)
peptide: B5 peptide with G30S, K31P
modifications: HOOC-(CH2)18-CO-(γGlu)-EKEKEKG-PEG24-EK-βAla-RSS[CFGKRIDRIGHQSGLGC]PSFRHGSPSSGAPPPS-NH2; thioacetal linkage between the bracketed Cys

Target: T1, rat NPRA
Experiment: cell-based or functional assay

Binder	cGMP Assay (EC50, pM) w/BSA [pM]	cGMP Assay (EC50, pM) w/Casein [pM]
{C20 diacid}-[γGlu]EKEKEKGEK[βAla]RSSCFGGRIDRIGHYSGLGCPSLRHGGPSSGAPPPS-NH2 (bridge 15-31 via thioacetal) [Example 63]	785000	10600
{C20 diacid}-[γGlu]EKEKEKGEK[βAla]RSSCFGGRIDRIGHYSGLGCPSFRHGPSSGAPPPS-NH2 (bridge 15-31 via thioacetal) [Example 60]	962000	4830
{C20 diacid}-[γGlu]EKEKEKGEK[βAla]RSSCFGGRIDRIGHYSGLGCPSFRHGGPSSGAPPPS-NH2 (disulfide 15-31) [Example 54]	77200	796
{C20 diacid}-[γGlu]EKEKEKGS[4Pal]RRSSCFGKRIDRIGHQSGLGCPSFRHGGKSSGAPPPS-NH2 (bridge 15-31 via thioacetal) [Example 79]	261000	3440
B1	463000	32000
B2	533000	23800
{C20 diacid}-[γGlu]EKEKEKGS[4Pal]RRSSCFGGRIDRIGHQSGLGCPSFRHGGKSSGAPPPS-NH2 (bridge 15-31 via thioacetal) [Example 72]	1.07e+06	40500
{C20 diacid}-[γGlu]EKEKEKGKE[βAla]RSSCFGGRIDRIGHYSGLGCPSFRHGGPSSGAPPPS-NH2 (bridge 15-31 via thioacetal) [Example 58]	1.38e+06	7150
{C16 diacid}-[γGlu]EKEKEKGEK[βAla]RSSCFGGRIDRIGHYSGLGCPSFRHGGKSSGAPPPS-NH2 (bridge 15-31 via thioacetal) [Example 73]	76400	26000
{C20 diacid}-[γGlu]EKEKEKGEK[βAla]RSSCFGGRIDRIGHYSGLGCPSFRHGGPSSGAPPPS-NH2 (bridge 15-31 via thioacetal) [Example 56]	1.38e+06	11200
{C20 diacid}-[γGlu]EKEKEKGEK[βAla]RSSCFGGRIDRIGHYSGLGCPSFRHGGPSSGAPPPS-NH2 (bridge 15-31 via thioacetal) [Example 70]	712000	11800
B3	–	7420
B4	804000	–
{C20 diacid}-[γGlu]EKEKEKGEK[βAla]RSSCFGGRIDRIGHYSGLGCPSFRHGGKSSGAPPPS-NH2 (bridge 15-31 via thioacetal) [Example 76]	607000	8280
{C20 diacid}-[γGlu]EKEKEKGEK[βAla]RSSCFGGRIDRIGHYSGLGCPSFRHGGKSSGAPPPS-NH2 (bridge 15-31 via thioacetal) [Example 74]	1.13e+06	5820
{C20 diacid}-[γGlu]EKEKEKGS[4Pal]RRSSCFGGRIDRIGHQSGLGCPSFRHGGPPS[Aib]KPPPK-NH2 (bridge 15-31 via thioacetal) [Example 68]	1.28e+06	12100
{C20 diacid}-[γGlu]EKEKEKGS[4Pal]RRSSCFGGRIDRIGHQSGLGCPSFRHGGPPS[Aib]KPPPK-NH2 (bridge 15-31 via thioacetal) [Example 71]	594000	21000
B5	959000	36600
B6	519000	22500
{C20 diacid}-[γGlu]EKEKEKGS[4Pal]RRSSCFGGRIDRIGHQSGLGCPSFRHGGKSSGAPPPS-NH2 (bridge 15-31 via thioacetal) [Example 67]	1.55e+06	18800

Target: T2, human NPRA
Experiment: cell-based or functional assay

Binder	cGMP Assay (EC50, pM) w/BSA [pM]	cGMP Assay (EC50, pM) w/Casein [pM]
{C20 diacid}-[γGlu]EKEKEKGEK[βAla]RSSCFGGRIDRIGHYSGLGCPSLRHGGPSSGAPPPS-NH2 (bridge 15-31 via thioacetal) [Example 63]	63800	1090
{C20 diacid}-[γGlu]EKEKEKGEK[βAla]RSSCFGGRIDRIGHYSGLGCPSFRHGPSSGAPPPS-NH2 (bridge 15-31 via thioacetal) [Example 60]	81700	453
{C20 diacid}-[γGlu]EKEKEKGEK[βAla]RSSCFGGRIDRIGHYSGLGCPSFRHGGPSSGAPPPS-NH2 (disulfide 15-31) [Example 54]	19300	369
{C20 diacid}-[γGlu]EKEKEKGS[4Pal]RRSSCFGKRIDRIGHQSGLGCPSFRHGGKSSGAPPPS-NH2 (bridge 15-31 via thioacetal) [Example 79]	4580	273
B1	9000	912
B2	17000	1060
{C20 diacid}-[γGlu]EKEKEKGS[4Pal]RRSSCFGGRIDRIGHQSGLGCPSFRHGGKSSGAPPPS-NH2 (bridge 15-31 via thioacetal) [Example 72]	46400	588
{C20 diacid}-[γGlu]EKEKEKGKE[βAla]RSSCFGGRIDRIGHYSGLGCPSFRHGGPSSGAPPPS-NH2 (bridge 15-31 via thioacetal) [Example 58]	104000	1220
{C16 diacid}-[γGlu]EKEKEKGEK[βAla]RSSCFGGRIDRIGHYSGLGCPSFRHGGKSSGAPPPS-NH2 (bridge 15-31 via thioacetal) [Example 73]	5820	1230
{C20 diacid}-[γGlu]EKEKEKGEK[βAla]RSSCFGGRIDRIGHYSGLGCPSFRHGGPSSGAPPPS-NH2 (bridge 15-31 via thioacetal) [Example 56]	145000	855
{C20 diacid}-[γGlu]EKEKEKGEK[βAla]RSSCFGGRIDRIGHYSGLGCPSFRHGGPSSGAPPPS-NH2 (bridge 15-31 via thioacetal) [Example 70]	92500	1840
B3	–	614
B4	61400	–
{C20 diacid}-[γGlu]EKEKEKGEK[βAla]RSSCFGGRIDRIGHYSGLGCPSFRHGGKSSGAPPPS-NH2 (bridge 15-31 via thioacetal) [Example 76]	79900	2620
{C20 diacid}-[γGlu]EKEKEKGEK[βAla]RSSCFGGRIDRIGHYSGLGCPSFRHGGKSSGAPPPS-NH2 (bridge 15-31 via thioacetal) [Example 74]	171000	1590
{C20 diacid}-[γGlu]EKEKEKGS[4Pal]RRSSCFGGRIDRIGHQSGLGCPSFRHGGPPS[Aib]KPPPK-NH2 (bridge 15-31 via thioacetal) [Example 68]	–	924
{C20 diacid}-[γGlu]EKEKEKGS[4Pal]RRSSCFGGRIDRIGHQSGLGCPSFRHGGPPS[Aib]KPPPK-NH2 (bridge 15-31 via thioacetal) [Example 71]	–	594
B5	6920	980
B6	6180	813
{C20 diacid}-[γGlu]EKEKEKGS[4Pal]RRSSCFGGRIDRIGHQSGLGCPSFRHGGKSSGAPPPS-NH2 (bridge 15-31 via thioacetal) [Example 67]	139000	1220
